Data reported in article PMC9629070 (Autophagy, 2022).

T1: GST-ATG6 (Arabidopsis thaliana, UniProt Q9M367 1-517)
T1 sequence (looked up): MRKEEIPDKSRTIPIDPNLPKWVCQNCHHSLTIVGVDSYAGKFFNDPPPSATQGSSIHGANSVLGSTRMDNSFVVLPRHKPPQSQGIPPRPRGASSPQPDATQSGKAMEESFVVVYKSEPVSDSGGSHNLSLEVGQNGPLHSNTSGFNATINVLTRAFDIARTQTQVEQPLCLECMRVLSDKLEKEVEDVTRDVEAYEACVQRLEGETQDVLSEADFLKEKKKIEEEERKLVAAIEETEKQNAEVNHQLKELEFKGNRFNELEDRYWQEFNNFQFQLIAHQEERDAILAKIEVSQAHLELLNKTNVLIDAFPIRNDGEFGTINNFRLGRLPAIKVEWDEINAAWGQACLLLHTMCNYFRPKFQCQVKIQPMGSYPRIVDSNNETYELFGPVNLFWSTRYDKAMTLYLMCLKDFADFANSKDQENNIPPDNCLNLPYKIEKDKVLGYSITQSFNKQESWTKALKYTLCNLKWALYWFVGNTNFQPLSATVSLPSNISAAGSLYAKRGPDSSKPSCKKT

B1: PGK3-His (natural protein, Arabidopsis thaliana, UniProt Q9SAJ4 1-401, looked up)
chain: MATKRSVGTLKEADLKGKSVFVRVDLNVPLDDNSNITDDTRIRAAVPTIKYLMGNGSRVVLCSHLGRPKGVTPKYSLKPLVPRLSELLGVEVVMANDSIGEEVQKLVAGLPEGGVLLLENVRFYAEEEKNDPEFAKKLAALADVYVNDAFGTAHRAHASTEGVAKFLKPSVAGFLMQKELDYLVGAVANPKKPFAAIVGGSKVSTKIGVIESLLNTVDILLLGGGMIFTFYKAQGLSVGSSLVEEDKLDLAKSLMEKAKAKGVSLLLPTDVVIADKFAPDANSKIVPATAIPDGWMGLDIGPDSIKTFSEALDTTKTIIWNGPMGVFEFDKFAAGTEAVAKQLAELSGKGVTTIIGGGDSVAAVEKVGLADKMSHISTGGGASLELLEGKPLPGVLALDEA
B2: GST-ATG3 (natural protein, Arabidopsis thaliana, UniProt Q0WWQ1 1-313, looked up)
chain: MVLSQKLHEAFKGTVERITGPRTISAFKEKGVLSVSEFVLAGDNLVSKCPTWSWESGDASKRKPYLPSDKQFLITRNVPCLRRAASVAEDYEAAGGEVLVDDEDNDGWLATHGKPKDKGKEEDNLPSMDALDINEKNTIQSIPTYFGGEEDDDIPDMEEFDEADNVVENDPATLQSTYLVAHEPDDDNILRTRTYDLSITYDKYYQTPRVWLTGYDESRMLLQPELVMEDVSQDHARKTVTIEDHPHLPGKHASVHPCRHGAVMKKIIDVLMSRGVEPEVDKYLFLFLKFMASVIPTIEYDYTMDFDLGSSST

Assays:
Test in all cases: pull-down
GST-ATG6 = biological target: T1, GST-ATG6
GAPC2-His = GAPC2-His (Arabidopsis thaliana, UniProt Q9FX54 1-338)
GAPC1-His = GAPC1-His (Arabidopsis thaliana, UniProt P25858 1-338)
Chain of GAPC1-His (P25858 whole entry): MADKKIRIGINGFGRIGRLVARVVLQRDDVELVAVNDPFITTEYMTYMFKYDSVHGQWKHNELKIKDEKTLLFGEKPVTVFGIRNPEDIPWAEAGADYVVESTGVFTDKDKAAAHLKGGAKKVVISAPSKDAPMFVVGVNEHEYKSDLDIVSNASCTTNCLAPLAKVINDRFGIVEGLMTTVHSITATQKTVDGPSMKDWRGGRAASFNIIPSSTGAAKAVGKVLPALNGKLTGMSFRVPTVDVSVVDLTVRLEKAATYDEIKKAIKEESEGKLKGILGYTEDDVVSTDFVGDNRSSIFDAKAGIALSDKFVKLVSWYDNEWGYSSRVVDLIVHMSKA

Chain of GAPC2-His (Q9FX54 whole entry): as the sequence (P25858 whole entry) above, with N61H, I65V, E68D, A92G, Y98F, A227S, L274M counted along it

Row | Binder | binding result (GST-ATG6) | binding result (GAPC2-His) | binding result (GAPC1-His)
1 | B1 | binds | – | –
2 | B2 | – | binds | binds
